Each block holds one molecule with its values, some of them ahead of it.
Legend:
[1] = molecular target: Alexa-Fluor-488-labeled PS (human) (UniProt P07225); experiment: flow cytometry on cells
Protein S (human) = Protein S (human) (UniProt P07225); experiment: fluorescence polarisation
FIXa K126A (human) = FIXa K126A (human) (UniProt P00740)
FIXa K132A (human) = FIXa K132A (human) (UniProt P00740)
FIXa K132A/R170A (human) = FIXa K132A/R170A (human) (UniProt P00740)
FIXa N129A (human) = FIXa N129A (human) (UniProt P00740)
[2] = molecular target: FIXa Padua mutant (R170L) (human) (UniProt P00740)
FIXa R150A (human) = FIXa R150A (human) (UniProt P00740)
FIXa R165A (human) = FIXa R165A (human) (UniProt P00740)
Factor IXa wild type = Factor IXa wild type (human, UniProt P00740 47-191; P00740 227-461); experiment: cell-based or functional assay
DEGR-FIXa K126A (human) = DEGR-FIXa K126A (human) (UniProt P00740); experiment: other fluorescence titration
DEGR-FIXa K132A (human) = DEGR-FIXa K132A (human) (UniProt P00740); experiment: other fluorescence titration
DEGR-FIXa N129A (human) = DEGR-FIXa N129A (human) (UniProt P00740); experiment: other fluorescence titration
[3] = molecular target: DEGR-FIXa Padua mutant (R170L) (human) (UniProt P00740); experiment: other fluorescence titration
DEGR-FIXa R150A (human) = DEGR-FIXa R150A (human) (UniProt P00740); experiment: other fluorescence titration
DEGR-FIXa R165A (human) = DEGR-FIXa R165A (human) (UniProt P00740); experiment: other fluorescence titration
[4] = molecular target: DEGR-labelled des-Gla FIXa (human); experiment: other fluorescence titration

IC50 (Protein S (human)): 163 nM
Molecule: FIXa Padua mutant (R170L) (from UniProt P00740 47-191) (enzyme)

IC50 (Protein S (human)): 135 nM
Molecule: des-Gla FIXa (domain or fragment)

IC50 (Protein S (human)): 213 nM
Molecule: FIXa K132A (from UniProt P00740 47-191) (enzyme)

IC50 (Protein S (human)): 68 nM
Molecule: FIXa R165A (from UniProt P00740 47-191) (enzyme)

Ki of inhibition by PS of FX activation by FIXa-phospholipid (S-2765) (FIXa K126A (human)): 100 nmol/L
Ki of inhibition by PS of FX activation by FIXa-phospholipid (S-2765) (FIXa K132A (human)): 132 nmol/L
Ki of inhibition by PS of FX activation by FIXa-phospholipid (S-2765) (FIXa K132A/R170A (human)): 271 nmol/L
Ki of inhibition by PS of FX activation by FIXa-phospholipid (S-2765) (FIXa N129A (human)): 72 nmol/L
Ki of inhibition by PS of FX activation by FIXa-phospholipid (S-2765) [2]: 175 nmol/L
Ki of inhibition by PS of FX activation by FIXa-phospholipid (S-2765) (FIXa R150A (human)): 48 nmol/L
Ki of inhibition by PS of FX activation by FIXa-phospholipid (S-2765) (FIXa R165A (human)): 33 nmol/L
Ki of inhibition by PS of FX activation in the Xase complex (FIXa-FVIIIa) (des-Gla FIXa (human)): 120 nmol/L
Ki of inhibition by PS of FX activation by FIXa-phospholipid (S-2765) (Factor IXa wild type): 35 nmol/L
Kd (DEGR-FIXa K126A (human)): 118 nM
Kd (DEGR-FIXa K132A (human)): 148 nM
Kd (DEGR-FIXa N129A (human)): 77 nM
Kd [3]: 157 nM
Kd (DEGR-FIXa R150A (human)): 48 nM
Kd (DEGR-FIXa R165A (human)): 54 nM
Kd [4]: 124 nM
B1: Protein S (natural protein, human, UniProt P07225 42-676, looked up)
chain: ANSLLEETKQGNLERECIEELCNKEEAREVFENDPETDYFYPKYLVCLRSFQTGLFTAARQSTNAYPDLRSCVNAIPDQCSPLPCNEDGYMSCKDGKASFTCTCKPGWQGEKCEFDINECKDPSNINGGCSQICDNTPGSYHCSCKNGFVMLSNKKDCKDVDECSLKPSICGTAVCKNIPGDFECECPEGYRYNLKSKSCEDIDECSENMCAQLCVNYPGGYTCYCDGKKGFKLAQDQKSCEVVSVCLPLNLDTKYELLYLAEQFAGVVLYLKFRLPEISRFSAEFDFRTYDSEGVILYAESIDHSAWLLIALRGGKIEVQLKNEHTSKITTGGDVINNGLWNMVSVEELEHSISIKIAKEAVMDINKPGPLFKPENGLLETKVYFAGFPRKVESELIKPINPRLDGCIRSWNLMKQGASGIKEIIQEKQNKHCLVTVEKGSYYPGSGIAQFHIDYNNVSSAEGWHVNVTLNIRPSTGTGVMLALVSGNNTVPFAVSLVDSTSEKSQDILLSVENTVIYRIQALSLCSDQQSHLEFRVNRNNLELSTPLKIETISHEDLQRQLAVLDKAMKAKVATYLGGLPDVPFSATPVNAFYNGCMEVNINGVQLDLDEAISKHNDIRAHSCPSVWKKTKNS

Second part, the molecule before the results:

Molecule: fluorescently labeled des-Gla FIXa (domain or fragment)
median fluorescence intensity [1]: 4000

Molecule: FIXa R150A (from UniProt P00740 47-191) (enzyme)
IC50 (Protein S (human)): 43 nM

Molecule: FIXa K126A (from UniProt P00740 47-191) (enzyme)
IC50 (Protein S (human)): 140 nM

Molecule: zymogen form of FIX (natural protein)
IC50 (Protein S (human)): 200 nM

Molecule: FIXa N129A (from UniProt P00740 47-191) (enzyme)
IC50 (Protein S (human)): 92 nM
